Results reported in patent publication US20220162322A1.

What was measured:
[1] = target: human BDCA-2-Fc (hIgG1-Fc-hBDCA-2) (human); assay: ELISA on plate-coated human BDCA2-Fc
[2] = target: BDCA-2 (CLEC4C, CD303) on human plasmacytoid dendritic cells (purified pDC or pDC within PBMC) (human) (UniProt Q8WTT0); assay: cell-based or functional assay
[3] = target: human BDCA-2-Fc (hIgG1-Fc-hBDCA-2) (human); assay: SPR (BIAcore T200), huBDCA2-Fc immobilised on CM5 chip, mAb injected

Sequence of BDCA-2 (CLEC4C, CD303) on human plasmacytoid dendritic cells (purified pDC or pDC within PBMC) (human) (Q8WTT0 whole entry): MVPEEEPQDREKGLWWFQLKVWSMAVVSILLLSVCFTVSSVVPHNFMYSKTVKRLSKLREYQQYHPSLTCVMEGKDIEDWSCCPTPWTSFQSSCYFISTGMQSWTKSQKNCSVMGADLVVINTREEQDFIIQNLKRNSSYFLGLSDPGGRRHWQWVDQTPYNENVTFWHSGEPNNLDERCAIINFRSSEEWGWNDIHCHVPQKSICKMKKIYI
Sequence of human BDCA-2-Fc (hIgG1-Fc-hBDCA-2) (human) (chain, as listed by the source limits assumed): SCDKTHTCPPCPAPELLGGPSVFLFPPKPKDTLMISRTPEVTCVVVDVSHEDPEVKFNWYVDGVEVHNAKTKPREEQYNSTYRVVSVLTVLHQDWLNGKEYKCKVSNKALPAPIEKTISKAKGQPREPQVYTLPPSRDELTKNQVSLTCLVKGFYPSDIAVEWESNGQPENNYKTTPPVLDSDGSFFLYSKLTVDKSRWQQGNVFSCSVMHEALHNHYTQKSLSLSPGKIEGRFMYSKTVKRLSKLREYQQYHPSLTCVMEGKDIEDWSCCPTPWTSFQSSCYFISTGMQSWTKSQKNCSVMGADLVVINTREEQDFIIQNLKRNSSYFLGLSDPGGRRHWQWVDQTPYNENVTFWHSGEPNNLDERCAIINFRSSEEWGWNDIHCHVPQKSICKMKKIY

EC50 [1]: 0.27 nM
IC50, nM; inhibition of IFNα from ODN stimulated healthy donor PBMC [2]: 1.52 nM
IC50, ng/ml; inhibition of IFNα from ODN stimulated healthy donor PBMC [2]: 228 ng/mL
IC90, nM; inhibition of IFNα from ODN stimulated healthy donor PBMC [2]: 13.7 nM
IC90, ng/ml; inhibition of IFNα from ODN stimulated healthy donor PBMC [2]: 2060 ng/mL
Kd [3]: 2.3 nM
Substance: anti-BDCA-2 mAb AC144 (Miltenyi Biotec, cat. no. 130-090-690) (antibody)
